Measured values reported in article PMC9067669, “Allostery in the dynamic coactivator domain KIX occurs through minor conformational micro-states” (PLoS Computational Biology, 2022).
Blank lines part the entries; values can stand above or below the binder they belong to. Non-standard residues stand in square brackets, D forms with d. pS = N[C@@H](COP(=O)(O)O)C(=O)O

Assays:
[1] = target: T1, KIX domain from mouse CBP, residues 586-672 (mouse, UniProt P45481 586-672); assay: differential scanning fluorimetry (DSF); 20 uM protein with 5X SYPRO orange, incubated with 1X TAD peptide at RT for 30 minutes; 25-95°C at 1°C/min; Tm is the maximum of the first derivative, dTm the difference between protein and protein + ligand; settings: both partners purified
T1 construct: the pRSETB vector may add further residues beside the His tag (surmise); also called apo KIX; Apo KIX(586-672); source: E. coli BL21 DE3, purified (HisTrap Ni IMAC, Source S ion exchange)

[2] = target: T2, KIX_(I660V) (KIX domain from mouse CBP, residues 586-672, I660V) (mouse, UniProt P45481 586-672, I660V); assay: as above; settings: both partners purified
T2 construct: also called mutant KIX_(I660V); K_(I660V); source: E. coli BL21 DE3, purified (HisTrap Ni IMAC, Source S ion exchange)
T2 sequence (P45481 586-672 I660V): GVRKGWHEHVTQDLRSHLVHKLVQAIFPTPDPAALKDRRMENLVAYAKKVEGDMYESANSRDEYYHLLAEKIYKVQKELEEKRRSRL

T1 sequence (P45481 586-672): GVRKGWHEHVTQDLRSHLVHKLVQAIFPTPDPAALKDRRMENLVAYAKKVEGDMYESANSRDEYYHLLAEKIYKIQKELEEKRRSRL

B1: MLL(840-858) peptide (peptide)
peptide: Ac-DCGNILPSDIMDFVLKNTPY-NH2
notes: mixed lineage leukemia (MLL) transcription factor peptide, printed residues 840-858; last printed letter of the peptide, beyond the 19 residues of the stated range; source: synthetic peptide (HPLC purified, reduced with DTT, 98% purity)
increase in TM [1]: 0.8 °C

binding result [1]: binds
binding result [2]: binds
B2: pKID(119-147) peptide, phosphorylated kinase-inducible domain of CREB (peptide)
peptide: Ac-TDSQKRREILSRRP[pS]YRKILNDLSSDAPG-NH2
SMILES: CC[C@H](C)[C@H](NC(=O)[C@H](CCCCN)NC(=O)[C@H](CCCNC(=N)N)NC(=O)[C@H](Cc1ccc(O)cc1)NC(=O)[C@H](COP(=O)(O)O)NC(=O)[C@@H]1CCCN1C(=O)[C@H](CCCNC(=N)N)NC(=O)[C@H](CCCNC(=N)N)NC(=O)[C@H](CO)NC(=O)[C@H](CC(C)C)NC(=O)[C@@H](NC(=O)[C@H](CCC(=O)O)NC(=O)[C@H](CCCNC(=N)N)NC(=O)[C@H](CCCNC(=N)N)NC(=O)[C@H](CCCCN)NC(=O)[C@H](CCC(N)=O)NC(=O)[C@H](CO)NC(=O)[C@H](CC(=O)O)NC(=O)[C@@H](NC(C)=O)[C@@H](C)O)[C@@H](C)CC)C(=O)N[C@@H](CC(C)C)C(=O)N[C@@H](CC(N)=O)C(=O)N[C@@H](CC(=O)O)C(=O)N[C@@H](CC(C)C)C(=O)N[C@@H](CO)C(=O)N[C@@H](CO)C(=O)N[C@@H](CC(=O)O)C(=O)N[C@@H](C)C(=O)N1CCC[C@H]1C(=O)NCC(N)=O
notes: kinase-inducible domain of CREB, residues 119-147, phosphorylated; source: synthetic peptide (HPLC purified, >90% purity)
